Measurements reported in IntAct's records for PubMed 19955427.

B1: Protein phosphatase 2C 37 (Arabidopsis thaliana (Mouse-ear cress)), P49598 (parent)
chain: MAGICCGVVGETEPAAPVDSTSRASLRRRLDLLPSIKIVADSAVAPPLENCRKRQKRETVVLSTLPGNLDLDSNVRSENKKARSAVTNSNSVTEAESFFSDVPKIGTTSVCGRRRDMEDAVSIHPSFLQRNSENHHFYGVFDGHGCSHVAEKCRERLHDIVKKEVEVMASDEWTETMVKSFQKMDKEVSQRECNLVVNGATRSMKNSCRCELQSPQCDAVGSTAVVSVVTPEKIIVSNCGDSRAVLCRNGVAIPLSVDHKPDRPDELIRIQQAGGRVIYWDGARVLGVLAMSRAIGDNYLKPYVIPDPEVTVTDRTDEDECLILASDGLWDVVPNETACGVARMCLRGAGAGDDSDAAHNACSDAALLLTKLALARQSSDNVSVVVVDLRKRRNNQASS
partner: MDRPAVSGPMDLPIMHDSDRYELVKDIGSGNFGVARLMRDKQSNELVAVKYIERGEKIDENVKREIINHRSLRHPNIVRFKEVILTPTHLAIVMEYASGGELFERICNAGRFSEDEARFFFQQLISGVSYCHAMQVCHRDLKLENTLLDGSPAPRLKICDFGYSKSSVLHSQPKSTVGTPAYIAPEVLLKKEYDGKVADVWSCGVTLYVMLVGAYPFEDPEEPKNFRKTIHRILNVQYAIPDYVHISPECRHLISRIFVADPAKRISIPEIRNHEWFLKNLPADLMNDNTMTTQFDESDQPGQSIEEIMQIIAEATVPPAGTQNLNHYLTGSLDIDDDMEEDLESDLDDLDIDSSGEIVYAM
B2: Serine/threonine-protein kinase SRK2E (Arabidopsis thaliana (Mouse-ear cress)), Q940H6 (parent)
chain: B1 partner
partner: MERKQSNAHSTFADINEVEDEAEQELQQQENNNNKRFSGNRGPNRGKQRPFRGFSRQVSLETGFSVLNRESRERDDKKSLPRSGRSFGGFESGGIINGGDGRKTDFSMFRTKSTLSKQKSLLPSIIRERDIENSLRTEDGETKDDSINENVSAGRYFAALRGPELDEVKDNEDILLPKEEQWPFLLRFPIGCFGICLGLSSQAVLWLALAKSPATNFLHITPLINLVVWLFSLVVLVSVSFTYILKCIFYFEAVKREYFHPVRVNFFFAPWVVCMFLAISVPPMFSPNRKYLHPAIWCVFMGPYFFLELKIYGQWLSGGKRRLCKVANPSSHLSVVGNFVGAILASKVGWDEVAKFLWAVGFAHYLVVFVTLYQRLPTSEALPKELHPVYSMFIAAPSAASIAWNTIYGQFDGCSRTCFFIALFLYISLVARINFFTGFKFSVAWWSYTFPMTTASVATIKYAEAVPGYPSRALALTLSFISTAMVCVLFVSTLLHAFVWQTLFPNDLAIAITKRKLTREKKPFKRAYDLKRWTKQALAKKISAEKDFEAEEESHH

Variants of: B1
Conditions: with srk2e_arath SRK2E

effect of a mutation on the interaction | Variant
disrupting interaction | MAGICCGVVGETEPAAPVDSTSRASLRRRLDLLPSIKIVADSAVAPPLENCRKRQKRETVVLSTLPGNLDLDSNVRSENKKARSAVTNSNSVTEAESFFSDVPKIGTTSVCGRRRDMEDAVSIHPSFLQRNSENHHFYDVFDGHDCSHVAEKCRERLHDIVKKEVEVMASDEWTETMVKSFQKMDKEVSQRECNLVVNGATRSMKNSCRCELQSPQCDAVGSTAVVSVVTPEKIIVSNCGDSRAVLCRNGVAIPLSVDHKPDRPDELIRIQQAGGRVIYWDGARVLGVLAMSRAIGDNYLKPYVIPDPEVTVTDRTDEDECLILASDGLWDVVPNETACGVARMCLRGAGAGDDSDAAHNACSDAALLLTKLALARQSSDNVSVVVVDLRKRRNNQASS [G139D;G145D]

Variants of: B2
Conditions: with slac1_arath SLAC1, Q9LD83

Variant | effect of a mutation on the interaction
MDRPAVSGPMDLPIMHDSDRYELVKDIGSGNFGVARLMRDKQSNELVAVNYIERGEKIDENVKREIINHRSLRHPNIVRFKEVILTPTHLAIVMEYASGGELFERICNAGRFSEDEARFFFQQLISGVSYCHAMQVCHRDLKLENTLLDGSPAPRLKICDFGYSKSSVLHSQPKSTVGTPAYIAPEVLLKKEYDGKVADVWSCGVTLYVMLVGAYPFEDPEEPKNFRKTIHRILNVQYAIPDYVHISPECRHLISRIFVADPAKRISIPEIRNHEWFLKNLPADLMNDNTMTTQFDESDQPGQSIEEIMQIIAEATVPPAGTQNLNHYLTGSLDIDDDMEEDLESDLDDLDIDSSGEIVYAM [K50N] | disrupting interaction
